Source: publication PMC7149228
pKd: −log10 of the molar value.

Target: Polyubiquitinated model substrate (lac repressor degron-sfGFP) bearing long ubiquitin chains (E. coli | not stated) (UniProt P0CG48)
Assay: MST

pKd: 4.00
Substance: Ddi1 construct containing the HDD and RVP domains (D220N) (domain or fragment)
